Laboratory results published in US20200239888, “COMPOSITIONS AND METHODS FOR MODULATION OF PROTEIN AGGREGATION” (Ionis Pharmaceuticals, Inc., published 2020).

Molecular target: FUS(1-526)[P525L]-NLUC-FLAG (UniProt P35637 P35637:1-526, P525L)
Assay: competition; competitive nanoBRET vs AF594-JB39; reported as KD (50% dissociation of BRET pair); table prints NLUC-HA, text NLUC-FLAG
Conditions: tags: C-terminal NLUC-FLAG; PURExpress
Method: Competitive NanoBRET binding assays were performed with unlabeled oligonucleotides JB40, JB41, and JB42. First, the relative amount of purified protein per volume of bead suspension (based on nluc activity) was determined in 2× binding buffer (200 mM potassium acetate, 40 mM Tris pH 8.0, 2 mM EDTA, 0.02% NP-40, 6 μg/mL BSA, and 1:1000 Promega Nano-Glo luciferase substrate) using an eight-point dilution curve over ˜3.5 orders of magnitude. Alexafluor594-labeled JB39 was diluted into water in opaque white 96-well plates a single concentration, and varying concentrations of JB40, JB41, or JB42, spanning the pM to low μM range were added to a final total volume of 50 μL/well. 50 μL/well of 2× binding buffer containing 10⁶ RLU (relative luminescence units) beads/well was added and plates were shaken for 10 minutes at room temperature. Nanoluciferase activity and BRET were measured in a Glowmax Discover plate reader and KD values, shown in the table below, were calculated using GraphPad Prism.

Sequence of FUS(1-526)[P525L]-NLUC-FLAG (P35637 whole entry P525L, one chain of several): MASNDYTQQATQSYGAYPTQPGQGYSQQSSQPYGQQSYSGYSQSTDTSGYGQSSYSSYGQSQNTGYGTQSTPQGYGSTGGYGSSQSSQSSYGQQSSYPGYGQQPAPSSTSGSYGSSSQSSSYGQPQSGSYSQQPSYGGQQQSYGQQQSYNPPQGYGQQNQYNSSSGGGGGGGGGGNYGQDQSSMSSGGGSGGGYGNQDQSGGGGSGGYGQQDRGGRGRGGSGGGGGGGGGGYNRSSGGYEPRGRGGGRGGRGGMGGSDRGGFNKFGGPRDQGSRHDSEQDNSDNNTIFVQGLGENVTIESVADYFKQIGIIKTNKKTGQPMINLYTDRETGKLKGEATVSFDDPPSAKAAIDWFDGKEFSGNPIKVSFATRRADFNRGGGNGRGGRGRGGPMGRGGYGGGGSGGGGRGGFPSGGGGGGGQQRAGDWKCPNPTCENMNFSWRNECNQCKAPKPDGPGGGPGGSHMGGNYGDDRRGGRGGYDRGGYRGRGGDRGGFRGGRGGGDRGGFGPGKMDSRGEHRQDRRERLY

| Binder | IC50 [nM] |
| --- | --- |
| CTGCTAGCCTCTGGATTTGA (ssDNA, full PS) [JB41 (DNA, phosphorothioate)] | 0.4 |
| CUGCUAGCCUCUGGAUUUGA (ssRNA, full PS) [JB42 (RNA, phosphorothioate)] | 7.2 |
